Tests used:
[1] = target: T1, hROR2-ECD-HIS (human, UniProt Q01974); test: Western blot of denatured, reduced samples; anti-human Fcγ-HRP
T1 construct: extracellular domain; also called hROR2-His; purified extracellular domain of hROR2
Text: The Western blots contained the following samples as indicated: Lane 1: K562 cells ectopically expressing full length of hROR1. Lane 2: untransfected K62 cells. Lane 3: purified extracellular domain of hROR1. Lane 4: purified extracellular domain of hROR2.
Western blotting: Cells or proteins were lysed by 1× sample buffer (containing 1% β-mercaptoethanol) and boiled before running on NuPAGE Novex 4-12% Bis-Tris gels (Invitrogen).

[2] = target: T2, StrepII-tagged human ROR1 extracellular domain (human, UniProt Q01973 30-406); test: SPR (Biacore T200); mAb captured by goat anti-human Fcγ IgG on CM5; ROR1-strep as analyte (Example 8); first of two independent measurements; batch of the parental IgG not stated
T2 construct: extracellular domain; also called ROR1-strep; strep-tagged human ROR1
T2 sequence (Q01973 other isoform, or with tags, fused parts or gaps): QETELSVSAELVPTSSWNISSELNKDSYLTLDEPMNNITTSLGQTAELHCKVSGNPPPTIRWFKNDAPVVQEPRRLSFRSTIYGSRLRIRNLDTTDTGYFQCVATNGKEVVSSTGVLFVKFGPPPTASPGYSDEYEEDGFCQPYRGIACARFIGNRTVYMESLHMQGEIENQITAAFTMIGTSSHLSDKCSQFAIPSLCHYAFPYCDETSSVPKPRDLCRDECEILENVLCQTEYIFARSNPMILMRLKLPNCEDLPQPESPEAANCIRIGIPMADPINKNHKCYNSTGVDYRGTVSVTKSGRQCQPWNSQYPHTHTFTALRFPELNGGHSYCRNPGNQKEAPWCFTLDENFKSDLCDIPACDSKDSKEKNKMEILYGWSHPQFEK
Procedure: (§1) Affinity screening was then performed to select the best binders. Affinities were determined using a Biacore T200 instrument (GE Healthcare, Buckinghamshire, UK) and data was evaluated using Biacore Evaluation T200 V2.0 software. To capture mAbs, goat α-human Fc-gamma-specific IgG (Jackson ImmunoResearch, #109-005-098) was covalently immobilized on a CM5 chip (GE Healthcare, #BR-1005-30).

[3] = target: T3, hROR2 (human, UniProt Q01974); test: flow cytometry on T47D cells (ROR2 positive, ROR1 negative); APC goat anti-human Fcγ
T3 construct: full length, on the cell surface; also called 63-12 / hROR2; ROR2 on T47D cells
T3 sequence (Q01974 34-943 limits assumed): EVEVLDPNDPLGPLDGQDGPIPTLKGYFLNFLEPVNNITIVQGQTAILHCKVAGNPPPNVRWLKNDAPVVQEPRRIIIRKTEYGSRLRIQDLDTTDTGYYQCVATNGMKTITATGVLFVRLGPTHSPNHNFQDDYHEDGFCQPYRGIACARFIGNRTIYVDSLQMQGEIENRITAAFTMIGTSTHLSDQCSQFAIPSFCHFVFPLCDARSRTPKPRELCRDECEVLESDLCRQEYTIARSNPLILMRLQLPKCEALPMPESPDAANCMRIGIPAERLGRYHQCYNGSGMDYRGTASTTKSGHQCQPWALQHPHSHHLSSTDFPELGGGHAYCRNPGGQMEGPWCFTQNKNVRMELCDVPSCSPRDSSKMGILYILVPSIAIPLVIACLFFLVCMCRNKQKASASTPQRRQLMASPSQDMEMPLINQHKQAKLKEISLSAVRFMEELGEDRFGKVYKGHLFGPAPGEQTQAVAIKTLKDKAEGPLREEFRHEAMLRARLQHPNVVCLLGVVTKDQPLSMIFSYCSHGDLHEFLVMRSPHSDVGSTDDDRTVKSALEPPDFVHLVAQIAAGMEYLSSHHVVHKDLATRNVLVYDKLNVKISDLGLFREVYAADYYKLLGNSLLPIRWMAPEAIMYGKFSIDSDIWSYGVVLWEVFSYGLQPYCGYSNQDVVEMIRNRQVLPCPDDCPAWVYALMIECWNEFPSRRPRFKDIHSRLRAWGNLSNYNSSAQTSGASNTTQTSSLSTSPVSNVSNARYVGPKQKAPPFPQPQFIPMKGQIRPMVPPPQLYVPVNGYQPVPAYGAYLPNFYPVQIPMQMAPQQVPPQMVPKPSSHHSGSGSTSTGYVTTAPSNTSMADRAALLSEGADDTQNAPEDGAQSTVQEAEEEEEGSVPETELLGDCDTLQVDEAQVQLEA
Procedure: Flow cytometry: Cells were stained using standard flow cytometry methodology. Briefly, for purified anti-ROR1 Fab (FIG. 3), 0.1-1×10⁶ cells were stained with 1000 ng/100 μL of Fab on ice for 1 h. After washing twice with ice-cold flow cytometry buffer (PBS containing 1% (v/v) BSA, 0.1% sodium azide and 1 mM EDTA), the cells were incubated with a 1:1000 dilution of a mouse anti-His tag mAb conjugated to Alexa Fluor 488 (Qiagen) in 100 μL flow cytometry buffer on ice for 30 min. For purified anti-ROR1 IgG1 (FIG. 8), 0.1-1×10⁶ cells were blocked by 4% goat serum for 15 min at room temperature and then incubated with 100 ng/100 μL of IgG on ice for 1 h. After washing twice with ice-cold flow cytometry buffer, cells were stained with a 1:500 dilution of goat anti-human IgG, Fcγ pAbs conjugated to APC (Jackson ImmunoResearch) in 100 μL flow cytometry buffer on ice for 30 min. For commercial goat anti human ROR1 polyclonal antibody (FIG. 8), 0.1-1×10⁶ cells were stained with 200 ng/100 μL of Ab on ice for 1 h. […] Finally, 4′,6-diamidino-2-phenylindole (DAPI) was added to a final concentration of 100 ng/mL to exclude dead cells from the analysis. Cells were analyzed using a FACSCalibur instrument (BD Biosciences) and FlowJo analytical software (Tree Star, Ashland, Oreg.).

[4] = target: T4, human ROR2 on HEK293 cells (cell microarray) (human, UniProt Q01974 34-943); test: cell microarray (Retrogenix): fixed HEK293 cells over-expressing the protein; AlexaFluor647 anti-human IgG Fc detection
T4 construct: whole, on cells; Expressed on fixed HEK293 cells of the Retrogenix microarray
T4 sequence (Q01974 34-943): as the sequence (Q01974 34-943 limits assumed) above
Procedure: (§2) ZsGreen1 signals on the left indicate the expression levels of the various human membrane proteins.
(§3) FIG. 28 provides an overview of the Retrogenix Cell Microarray Platform. […] An AlexaFluor647 anti-human IgG Fc detection antibody was used. Primary hits (duplicate spots) were identified by analyzing fluorescence (AlexaFluor647 and ZsGreen1) on ImageQuant. Vectors encoding all hits were sequenced to confirm their correct identities. […] Slides were analyzed as before (FIG. 29).

[5] = target: T5, human CD20 on HEK293 cells (cell microarray) (human, UniProt P11836 1-297); test: as above
T5 construct: whole, on cells; Expressed on fixed HEK293 cells of the Retrogenix microarray
T5 sequence (looked up): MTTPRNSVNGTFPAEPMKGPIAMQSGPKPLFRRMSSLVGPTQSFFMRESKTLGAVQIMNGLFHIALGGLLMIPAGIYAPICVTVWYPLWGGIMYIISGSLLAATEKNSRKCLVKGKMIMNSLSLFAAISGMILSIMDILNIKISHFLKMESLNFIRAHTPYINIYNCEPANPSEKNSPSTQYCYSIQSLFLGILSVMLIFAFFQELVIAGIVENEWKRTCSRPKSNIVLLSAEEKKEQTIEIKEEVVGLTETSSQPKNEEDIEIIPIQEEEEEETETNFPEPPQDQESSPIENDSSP
Procedure: as §2, §3

[6] = target: T2, StrepII-tagged human ROR1 extracellular …; test: SPR (Biacore T200); mAb captured by goat anti-human Fcγ IgG on CM5; ROR1-strep as analyte (Example 8); second of two independent measurements; batch of the parental IgG not stated
Procedure: as §1
Briefly, for capturing mAbs in HEK293T supernatants, the undiluted supernatants were captured with a flow of 30 μl/min for 120 s.

T1 sequence (Q01974 34-403): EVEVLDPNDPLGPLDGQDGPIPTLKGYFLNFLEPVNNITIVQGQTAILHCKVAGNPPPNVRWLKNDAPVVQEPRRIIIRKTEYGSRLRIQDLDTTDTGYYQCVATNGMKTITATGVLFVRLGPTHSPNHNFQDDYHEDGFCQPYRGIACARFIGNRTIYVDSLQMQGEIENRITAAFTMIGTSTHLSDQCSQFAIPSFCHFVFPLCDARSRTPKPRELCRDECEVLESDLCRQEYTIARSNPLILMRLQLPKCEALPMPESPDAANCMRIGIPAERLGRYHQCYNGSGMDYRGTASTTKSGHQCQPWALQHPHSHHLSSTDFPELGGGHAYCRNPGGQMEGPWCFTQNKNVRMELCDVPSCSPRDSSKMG

- binding result [1]: no binding (tested: 2 µg/mL)
- Kd [2]: 5.1 nM
- koff [2]: 0.00591 s⁻¹
- kon [2]: 1.16e+06 M⁻¹ s⁻¹
- binding result [3]: no binding (tested: 100 ng/100 µL)
- binding result [4]: no binding (tested: 20 µg/mL)
- binding result [5]: no binding (tested: 20 µg/mL)
- Kd [6]: 5.1 nM
- koff [6]: 0.00556 s⁻¹
- kon [6]: 1.1e+06 M⁻¹ s⁻¹
B1: XBR1-402 chimeric rabbit/human IgG1 (antibody, V domains shown)
VH: QEQQKESGGGLFKPTDTLTLTCTASGFDISSYYMSWVRQAPGNGLEWIGAIGISGNAYYASWAKSRSTITRNTNLNTVTLKMTSLTAADTATYFCARDHPTYGMDLWGPGTLVTVSS
VL: SYELTQLPSVSVSLGQTARITCEGNNIGSKAVHWYQQKPGLAPGLLIYDDDERPSGVPDRFSGSNSGDTATLTISGAQAGDEADYYCQVWDSSAYVFGGGTQLTVTG
notes: Rabbit variable domains on human IgG1 constant regions (vector PIGG), lambda light chain, from HEK 293F cells, Protein A purified

From patent US20220153839A1 (NBE THERAPEUTICS, published 2022)
